# Source: patent US20210380702A1 (Regeneron, published 2021)
# Where “and” joins values, the source holds several entries; their conditions need not be identical. Equal values may be shown once.
# B1: H1H9345P2 (antibody, V domains shown)
# VH: EVQLVESGGGLVQPGGSLRLSCAASGFTISTNYMNWVRQAPGKGLEWVAVIYSSGSTYYIDSVKGRFTISRLTSKNTVYLQMSSLNSEDTAVYYCARGIRGFDIWGQGTMVTVSS
# VL: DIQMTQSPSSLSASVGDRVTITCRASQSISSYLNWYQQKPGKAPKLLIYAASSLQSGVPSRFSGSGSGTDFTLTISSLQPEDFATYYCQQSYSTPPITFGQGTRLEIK
# notes: human IgG1 Fc (H1H prefix)
# B2: H1H9364P2 (antibody, V domains shown)
# VH: EVQLVESGGGLVQPGRSLRLSCAASGFTFDDYALHWVRQAPGKGLEWVSGISWTGGTIDYADSVKGRFTISRDNAKNSLYLQMSSLRTEDTAIYYCTRDIRGNWKYGGWFDPWGQGTLVTVSS
# VL: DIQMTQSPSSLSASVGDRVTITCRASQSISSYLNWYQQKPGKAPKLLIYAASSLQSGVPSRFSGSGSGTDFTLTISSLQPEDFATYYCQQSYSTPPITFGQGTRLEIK
# notes: human IgG1 Fc (H1H prefix)
# B3: H1H9329P (antibody, V domains shown)
# VH: EVQLVESGGGLVQSGGSLRLSCAASGFTFSSYWMSWVRQAPGKGLEWVANIKQDGSEKYYVDSVKGRFTISRDNAKNSLYLQMNSLRADDTAVYYCARDDIVVVPAPMGYYYYYFGMDVWGQGTTVTVSS
# VL: DIQMTQSPSSLSASVGDRVTITCRASQGIRNDLGWYQQKPGKAPKRLIYAASSLQSGVPSRFSGSGSGTEFTLTISSLQPEDFATYYCLQHNSYPYTFGQGTKLEIK
# notes: human IgG1 Fc (H1H prefix)
# B4: H2aM8323N (antibody, V domains shown)
# VH: QVQLVQSGAEVKMPGSSVRVSCKASGGIFSSSTISWVRQAPGQGLEWMGEIIPVFGTVNYAQKFQDRVIFTADESTTTAYMELSSLKSGDTAVYFCARNWGLGSFYIWGQGTMVTVSS
# VL: EIVLTQSPGTLSLSPGERATLSCRASQSFNFNYLAWYQQKPGQAPRLLIYGASSRATGIPDRFSGSGSGTDFTLTINRLEPEDFGVFYCQQYESAPWTFGQGTKVEIK
# notes: human variable regions, mouse IgG2 Fc (H2aM prefix); also called H2M8323N
# B5: H1H9336P (antibody, V domains shown)
# VH: EVQLVESGGGLVQPGRSLRLSCAASGFTFDDFAMHWVRQAPGKGLEWVSGISWTGGNMDYANSVKGRFTISREDAKNSLYLQMNSLRAADTALYYCVKDIRGIVATGGAFDIWGRGTMVTVSS
# VL: DIQMTQSPSSLSASVGDRVTISCRASQTISTYLNWFQQKPGKAPKLLIYVVSSLQSGVPSRFSGSGSGTDFTLTISSLQPEDFATYYCQQSYSTPFTFGPGTKVDIK
# notes: human IgG1 Fc (H1H prefix)
# B6: H2aM8306N (antibody, V domains shown)
# VH: EVQLVESGGGLVQPGGSLRLSCAASGFTFSRFWMSWVRQAPGKGLEWVANINQDGTEKYYVDSVKGRFTISRDNAKNSLYLQMNSLRAGDTAVYYCANTYYDFWSGHFDYWGQGTLVTVSS
# VL: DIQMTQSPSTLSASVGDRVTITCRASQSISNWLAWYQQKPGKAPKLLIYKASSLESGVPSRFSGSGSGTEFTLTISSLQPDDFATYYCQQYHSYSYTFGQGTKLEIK
# notes: human variable regions, mouse IgG2 Fc (H2aM prefix); also called H2M8306N
# B7: H1H9354P2 (antibody, V domains shown)
# VH: EVQLVESGGGLVQPGGSLRLSCEASGFTVGVNHMNWVRQAPGKGLEWVSVIFSSGRTFYGDYVKGRLTIFRQTSQNTVYLQMNSLRSEDTAIYYCARGIGGLDIWGRGTMVTVSS
# VL: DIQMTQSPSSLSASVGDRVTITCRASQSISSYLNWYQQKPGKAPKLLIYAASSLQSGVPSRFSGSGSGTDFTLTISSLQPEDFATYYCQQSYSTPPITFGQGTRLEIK
# notes: human IgG1 Fc (H1H prefix)
# B8: H2aM8321N (antibody, V domains shown)
# VH: EERLVESGGDLVQPGGSLRLSCAASGITVGTNYMNWVRQAPGKGLEWVSVISSGGNTHYADSVKGRFIMSRQTSKNTLYLQMNSLETEDTAVYYCARGIRGLDVWGQGTMVTVSS
# VL: DIQMTQSPSSLSASVGDRVTITCRASQSMSSYLNWYQQKPGRAPKLLIFAASSLQSGVPSRFSGSGSGTDFTLTISSLQPEDFATYYCQQSYSTPPITFGQGTRLEIK
# notes: human variable regions, mouse IgG2 Fc (H2aM prefix); also called H2M8321N
# How the values were obtained:
# [1] = target: T1, recombinant human PD-L1 (amino acids 19-239 of NP_054862.1) expressed with a C-terminal mouse IgG2a Fc tag (human); test: competition ELISA: 8 nM hPD-L1-mFc binding to coated hB7-1-hFc-6His
# T1 construct: called dimeric; also called hPD-L1-mFc
# Method: (§1) The ability of monoclonal anti-PD-L1 antibodies to block human PD-L1 from binding to its binding partners, the human PD-1 and the human B7-1 receptors, was measured using two competition sandwich ELISA formats.
# (§2) A dimeric human PD-1 protein comprised of a portion of the extracellular domain (amino acids 25-170 of accession number NP_005009.2 with a C93S change) that was expressed with a C-terminal hFc tag (hPD-1-hFc; SEQ ID: 350) and a dimeric human B7-1 protein comprised of a portion of the extracellular domain expressed with C-terminal hFc tag and hexahistidine tags (hB7-1-hFc-6His; R&D Systems, #140-B1) were separately coated at 2 μg/mL on a 96-well microtiter plate in a PBS buffer overnight at 4° C. […] These antibody-protein complexes were then incubated for 1 hour at room temperature (RT). […] The complexes were allowed to bind to the coated plates for 1 hour at RT. […] Samples were developed with a TMB solution (BD Biosciences, #51-2606KC and #51-2607KC) to produce a colorimetric reaction and neutralized with 1M sulfuric acid before measuring absorbance at 450 nm on a Victor X5 plate reader. Data analysis used a sigmoidal dose-response model within Prism™ software.
# [2] = target: T2, full length human PD-L1 (amino acids 1 to 290 of NP_054862.1) on transfected cells (human, UniProt Q9NZQ7 19-290); test: FACS, 100 nM antibody
# T2 construct: also called HEK293/hPD-L1; Raji/hPD-L1
# Method: (§3) The binding of anti-PD-L1 antibodies to a human embryonic kidney cell line (HEK293; ATCC, #CRL-1573) stably transfected with full length human PD-L1 (amino acids 1 to 290 of accession number NP_054862.1) (HEK293/hPD-L1) was determined by FACS.
# (§4) For the assay, adherent cells were detached using enzyme-free dissociation buffer and blocked with complete medium. Cells were centrifuged and resuspended at a concentration of 2.8×10\hat{ }6 cells/mL in cold PBS containing 2% FBS. […] Cells were washed with D-PBS containing 2% FBS to remove unbound secondary detection reagents and fluorescence measurements were acquired using a HyperCyte (IntelliCyt, Inc.) flow cytometer. Data was analyzed using HyperCyte software.
# [3] = target: T2, full length human PD-L1 (amino acids 1 …); test: FACS, 100 nM antibody, HEK293/hPD-L1 cells
# Method: as §3, §4
# [4] = target: T3, recombinant human PD-L1 (amino acids 19-239 of NP_054862.1) expressed with a C-terminal human IgG1 Fc tag (human); test: SPR (Biacore 3000): 100 nM hPD-L1-hFc + 500 nM mAb on captured hPD-1-mFc, 25C
# T3 construct: also called hPD-L1-hFc
# Method: Next, inhibition studies for anti-PD-L1 monoclonal antibodies expressed with human Fc were performed on Biacore 3000 instrument. […] The entire experiment was performed at 25° C. in HBST running buffer (0.01 M HEPES pH7.4, 0.15M NaCl, 3 mM EDTA, 0.05% v/v Surfactant P20). The real-time binding responses were monitored during the entire course of the experiment and the binding response at the end of every step was recorded.
# [5] = target: T2, full length human PD-L1 (amino acids 1 …); test: cell-based or functional assay
# [6] = target: T4, recombinant cynomolgus monkey PD-L1 expressed with a C-terminal mouse IgG2a Fc tag (cynomolgus monkey); test: SPR (Biacore), mAb captured, 37C
# T4 construct: also called MfPD-L1-mFc; monkey PD-L1-mFc
# [7] = target: T1, recombinant human PD-L1 (amino acids …); test: competition ELISA: 0.5 nM hPD-L1-mFc binding to coated hPD-1-hFc
# Method: as §1, §2
# [8] = target: T1, recombinant human PD-L1 (amino acids …); test: BLI (Octet Red96): 100 nM hPD-L1-mFc + 500 nM mAb on captured hPD-1-hFc, 25C
# Method: Inhibition studies for anti-PD-L1 monoclonal antibodies expressed with mouse Fc were performed on an Octet Red96 instrument. […] Approximately 0.8 nm to 1.2 nm of recombinant human PD-1 expressed with a C-terminal human IgG1 Fc tag (hPD-1-hFc; SEQ ID: 350) was captured using anti-human IgG Fc capture biosensors. […] The entire experiment was performed at 25° C. in Octet HBST buffer (0.01 M HEPES pH7.4, 0.15M NaCl, 3 mM EDTA, 0.05% v/v Surfactant P20, 0.1 mg/mL BSA) with a plate shaking at a speed of 1000 rpm. The biosensors were washed in Octet HBST buffer in between each step of the experiment. The real-time binding response was monitored during the course of the experiment and the binding response at the end of every step was recorded.
# T2 sequence (Q9NZQ7 19-290 limits assumed): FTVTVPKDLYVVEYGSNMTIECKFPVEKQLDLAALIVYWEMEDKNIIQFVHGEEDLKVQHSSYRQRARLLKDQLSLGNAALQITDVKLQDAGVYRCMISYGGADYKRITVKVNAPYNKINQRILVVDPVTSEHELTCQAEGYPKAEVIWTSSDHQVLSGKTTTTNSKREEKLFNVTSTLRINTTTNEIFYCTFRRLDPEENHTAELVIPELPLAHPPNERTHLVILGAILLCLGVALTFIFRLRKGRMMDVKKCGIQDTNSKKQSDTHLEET
# T1 sequence (chain, as listed by the source limits assumed): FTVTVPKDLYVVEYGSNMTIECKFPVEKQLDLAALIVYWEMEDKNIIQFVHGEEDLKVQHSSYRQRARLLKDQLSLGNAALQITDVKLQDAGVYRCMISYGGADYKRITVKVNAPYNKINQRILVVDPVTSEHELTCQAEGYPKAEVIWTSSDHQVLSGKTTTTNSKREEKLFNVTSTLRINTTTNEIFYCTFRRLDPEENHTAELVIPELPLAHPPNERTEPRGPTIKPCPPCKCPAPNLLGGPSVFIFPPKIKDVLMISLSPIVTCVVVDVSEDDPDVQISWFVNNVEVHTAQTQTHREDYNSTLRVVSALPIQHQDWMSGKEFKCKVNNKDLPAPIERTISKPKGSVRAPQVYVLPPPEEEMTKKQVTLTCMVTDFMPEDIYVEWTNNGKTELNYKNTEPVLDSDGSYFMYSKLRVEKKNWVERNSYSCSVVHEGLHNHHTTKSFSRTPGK
# T3 sequence (chain, as listed by the source limits assumed): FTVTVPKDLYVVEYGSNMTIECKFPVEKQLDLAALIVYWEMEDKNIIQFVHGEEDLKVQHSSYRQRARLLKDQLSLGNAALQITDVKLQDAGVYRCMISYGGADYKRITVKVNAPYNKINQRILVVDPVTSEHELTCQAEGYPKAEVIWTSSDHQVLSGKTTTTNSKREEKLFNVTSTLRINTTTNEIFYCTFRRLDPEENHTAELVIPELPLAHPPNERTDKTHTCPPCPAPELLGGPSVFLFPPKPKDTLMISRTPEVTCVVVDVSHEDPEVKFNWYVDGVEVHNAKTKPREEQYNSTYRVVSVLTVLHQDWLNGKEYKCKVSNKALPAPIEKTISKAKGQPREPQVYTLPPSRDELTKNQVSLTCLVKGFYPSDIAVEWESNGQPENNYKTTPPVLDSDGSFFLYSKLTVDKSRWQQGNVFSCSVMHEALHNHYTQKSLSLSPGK
# T4 sequence (chain, as listed by the source limits assumed): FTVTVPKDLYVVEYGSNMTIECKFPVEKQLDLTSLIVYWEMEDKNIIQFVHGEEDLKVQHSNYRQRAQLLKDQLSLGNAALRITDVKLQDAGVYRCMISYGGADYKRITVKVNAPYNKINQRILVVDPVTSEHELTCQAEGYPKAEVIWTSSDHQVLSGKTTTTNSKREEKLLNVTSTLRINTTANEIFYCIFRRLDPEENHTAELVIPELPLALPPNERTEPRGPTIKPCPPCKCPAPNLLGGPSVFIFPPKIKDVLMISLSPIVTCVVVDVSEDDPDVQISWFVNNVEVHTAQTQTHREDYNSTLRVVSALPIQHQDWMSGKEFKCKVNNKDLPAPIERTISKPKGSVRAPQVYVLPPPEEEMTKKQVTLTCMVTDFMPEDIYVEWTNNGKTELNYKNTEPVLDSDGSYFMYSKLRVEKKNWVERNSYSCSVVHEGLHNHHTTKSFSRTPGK
Binder,% maximum blocking [1],Ratio of HEK293/hPD-L1 to HEK293 parental cells [2],MFI [3],% Blocking [4],Emax mean [%] @ 100 nM [5],Kd [6],koff [6],kon [6],t1/2 [6],% maximum blocking [7],IC50 [7],IC50 [1],% Blocking [8],Concentration [M] of Antibody at 125% activation [5]
B1,-34%,121,228000 MFI,-422%,89.2%,0.339 nM,0.000292 s⁻¹,861000 M⁻¹ s⁻¹,0.667 h,26%,< 0.25 nM,,,
B2,101%,157,324000 MFI,86%,,0.0471 nM and 0.028 nM,0.000111 s⁻¹ and 6.76e-05 s⁻¹,2.36e+06 M⁻¹ s⁻¹ and 2.41e+06 M⁻¹ s⁻¹,1.73 h and 2.85 h,100%,< 0.25 nM,4.1 nM,,
B3,100%,188,282000 MFI,97%,124%,0.708 nM,0.00154 s⁻¹,2.18e+06 M⁻¹ s⁻¹,0.133 h,100%,< 0.25 nM,4.9 nM,,
B4,99%,73,163000 MFI,,173%,,,,,100%,< 0.25 nM,< 4 nM,94%,2.2e-10 M
B5,99%,168,379000 MFI,84%,163%,0.0247 nM,4.6e-05 s⁻¹,1.86e+06 M⁻¹ s⁻¹,4.18 h,100%,< 0.25 nM,4.4 nM,,9.81e-11 M
B6,93%,246,316000 MFI,,167%,,,,,99%,< 0.25 nM,< 4 nM,94%,3.78e-09 M
B7,-13%,125,276000 MFI,-428%,89.9%,0.746 nM,0.000203 s⁻¹,272000 M⁻¹ s⁻¹,0.95 h,34%,0.53 nM,,,
B8,-124%,85,112000 MFI,,117%,,,,,10%,,,-94%,
